Sequences and labels used below:
B1: KD7-2H5 (antibody, V domains shown)
VH: EVQLVESGGGLVQPGGSLRLSCAASGFTFSSYWMHWVRQAPGKGLVWVSRINSDGSSTSYADSVKGRFAISRDNAKNTLYLQMNSLRAEDTAVYYCARALGGWDIDYWGQGTLVTVS
VL: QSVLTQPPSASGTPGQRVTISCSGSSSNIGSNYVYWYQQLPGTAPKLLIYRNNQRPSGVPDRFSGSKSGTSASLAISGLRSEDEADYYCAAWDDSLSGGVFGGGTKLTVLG
B2: KD1-2B1 (antibody, V domains shown)
VH: EVQLVESGGGLVQPGGSLRLSCAASGFTFSSYWMHWVRQAPGKGLVWVSRINNDGSSTGYADSVEGRFTISRDNAKNTLYLQINSLRAEDTAVYYCARQDGHYYYSMDVWGQGTTVTV
VL: QSALTQPRSVSGSPGQSVTISCTGTSSDVGGYNYVSWYQQHPGKAPKLMIYDVSERPSGVPARFSGSKSGNTASLTISGLQAEDEADYYCCSYAGNFRWVFGGGTKLTVL
B3: KD2-1D10 (antibody, V domains shown)
VH: EVQLVESGGGLIHPGGSLRLSCAASGFTFSSYWMHWVRQAPGKGLVWVSHIKSDGSNTIYADSVKGRFTISRDNAKNTLYLQMNSLRAEDTAVYYCGRGRSLTPRSAIDYWGQGTLVTV
VL: QSALTQPPSASGSPGQSVTITCTGTSSDVGGYNYVSWYQQHPGKAPKLMIYEVSKRPSGVPDRFSGSKSGNTASLTVSGLQAEDEADYHCSSFAGDNNSPVFGGGTKLTVL
B4: KD5-2D7 (antibody, V domains shown)
VH: EVQLVESGGGLVQPGGSLGLSCAASGFTFSNYWMHWVRQAPGKGLVWVSRINSDGSDTSYADSVKGRFTISRDNAENTLYLHMSSLRAEDTAVYYCARELGYGDYGMDVWGKGTTVTVS
VL: QSVLTQPPSASGTPGQRVTISCSGSSSNIGSHSVIWYQQLPGTAPKLLVYSDNQRPSGVPDRFSGSKSGTSASLAISGLQSEDEADYYCAAWDDSLNHLHVVFGGGTKLTVL
B5: KD7-1B5 (antibody, V domains shown)
VH: VQLVESGGGVVQPGRSLRLSCEASGFTFRSRAMHWVRQAPGKGLGWVAVIWYDGSNKYYADSVKGRFTISRDNSRNTLYLQMNSLRAEDTAVYYCARDLGSGFSLDYWGQGTLVTVS
VL: QSVLTQPPSVSAAPGQKVTISCSGSSSNIGNNYVSWYQQLPGTAPKLLIYDNNKRPSGIPDRFSGSKSGTSATLGITGLQTGDEADYYCGTWDSSLSAEVFGGGTKLTVLG
B6: KD1-1H8 (antibody, V domains shown)
VH: EVQLVESGGGSVQPGGSLRLSCAASGFTFSNYWMHWVRQAPGKGLVWVSRLNIDGSNTFYADSVKGRFTISRDNAKNTLYLQMNSLRAEDTAVYYCVRGGSDSGDSVPFDLWGRGTLVTVS
VL: EIVMTQSPATLSVSPGERATLSCRASQSVSSNLAWYQQNPGQAPRLLIYGASTRATGIPARFSGSGSGTEFTLTISSLQSEDFAVYYCQHYNNWPFTFGQGTKVEIK
B7: KD11-2E4 (antibody, V domains shown)
VH: EVQLVESGGGVVQPGESLRLSCAASGVTFSSYWMHWVRQVPGKGLVWVARINIDGTSTTYADCVKGRFTISRDNAKNTLYLQMSSLRAEDTAVYYCATERGLLSGGRWHSSHFDYWGQGTLVTVS
VL: DIQMTQSPSTLSASVGDRVTITCRASQSISSWLAWYQQKPGKAPKVLIYKTSSLESGVPSRFSGSGSGTEFTLTISSLQPDDFATYYCQQYDSSSLTWTFGQGTKVEIK
B8: KD10-1G3 (antibody, V domains shown)
VH: EVQLVESGGGLVQPGGSLKLSCAASGFSFSGAAMHWVRQSSGRGLEWLGRIRSKTNDYATAYAESLHGRFTISRDDAKNTAYLQMNRLKSEDTAIYYCTTVLSKGDHAVWLGPWGPGTLVTV
VL: QPVLTQPPSSSASPGESARLTCTLPSDISVAASDIYWYQQKAGSPPNFLLYDPSDSHKGQDSGVPSRFSGSRDGSANSGFLLISGVQSEDEADYYCMVWPPNTVGVVFGGGTTLTV
B9: KD12-1G7 (antibody, V domains shown)
VH: EVQLVESGGGLVQPGGSLRLSCGASGFTVSGKYMTWARQAPEKGLEWVSAIYRGGGTYYADSVKGRFTISRDNSKNMLYLQMNSLRAEDTAVYYCGGSVMVSATDYWGQGTLVTV
VL: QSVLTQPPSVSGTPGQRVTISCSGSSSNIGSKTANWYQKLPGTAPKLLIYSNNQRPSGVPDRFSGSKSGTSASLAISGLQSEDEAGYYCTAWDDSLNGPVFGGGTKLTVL
B10: KD12-2A10 (antibody, V domains shown)
VH: EVQLVESGGGLVKPGGSLRLSCAASGFTFINAWMNWVRQAPGKGLEWVGLIKSKTDGGTIDYAAPVKGRFTISRDDSEKMLYLQMDSLKTEDTAVYYCTTMYGWKDARDYWGQGTLVTV
VL: EIVLTQSPGTLSLSPGERATLSCRASQSVSSNLAWYQQKPGQAPRVLIYGASSRATGIPDRFSGSRSGTDFTLTISRLEPEDFAVYYCQRYDNSPRTFGQGTKVEIK
B11: KD3-1C10 (antibody, V domains shown)
VH: EVQLVESGGGLVQPGGSLRLSCAASGFTFSNHWMHWVRQAPGKGLLWVSRIDTGGSTTNYADSVKGRFTISRDSAKNTVYLQMNSLRAEDTAVYYCARGGLFYYGMDVWGQGTTVTV
VL: EIVLTQSPGTLSLSPGERATLSCRASQTSSSTSLAWYQQKRGQAPRLLIYGASRRATGIPDRFSGSGSGTDFTLTISRLEPEDFAVYYCQQFSGSPAYTFGQGTKVEIK
B12: KD10-1A8 (antibody, V domains shown)
VH: EVQLVESGGGLVQPGGSLRLSCAASGFTFSSYWMEWVRQAPGKGLVWVSHISSDGSVTRYVDSVKGRFTISRDNAKNTLYLQMNSLRAEDTGVYYCAKDLHWNALDVWGQGTMVTVS
VL: DIVMTQTPLSLSVTPGQPASISCKSSQSLLHNDGKTFLHWYLQKPGQSPQLLIYEVSSRFSGVPDRFSGSGSGTDFTLKISRVEAEDVGVYYCMQGIHLPPTFGGGTKVEIKR
B13: KD9-2H6 (antibody, V domains shown)
VH: EVQLVESGGGLVKPGESLRLSCVGSGFTLTNAWMIWVRQTSGKGLEWVGRIKSKIDGGAIDYGAPVKGRFTISRDDTKNTVYLQMNSLQTDDTGVYFCTTDRYSTGYYGMDDYWGQGTLVTV
VL: SYELTQPPSVSVSPGQTATITCSGDKLGDKYSFWYQQKPGQSPVVVIYQDSKRPSGIPERFSGSNSGNTATLTISGTQAMDEADYYCQVWDTDSAVFGTGTRVTV
B14: KD9-2A4 (antibody, V domains shown)
VH: LVESGGGLVQPGGSLRLSCAASGFTFSSYAMHWVRQAPGKGLEFASAISSDGGTTYYANSVKGRFTISRDNSKNTLYLQMGSLRDEDMAVYYCARDDLSTSWDLDYWGQGTLVTV
VL: QSALTQPASVSGSPGQSITISCTGTSSDVGGYNYVSWYQQHPGKAPKLMIYDVSNRPSGVSNRFSGSKSGNTASLTISGLQAEDEADYYCSSYTISSTNVFGTGTKVTVL

For the first experiment, the target named is T1, KDpeptide2.
T1 construct: Synthetic peptide (Anaspec) coated on ELISA plates at 800 ng per well
T1 peptide: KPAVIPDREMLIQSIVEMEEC
Nature of the experiment: ELISA on coated synthetic peptides, direct comparison.
Consider B1, for which the binding result is on record as “binds”.

With B2, the binding result was “binds”.

Take B3: the binding result is reported as “binds”.

Regarding B4, the binding result is “binds”.

Consider B5, for which the binding result was “binds”.

On to B6, for which the binding result is given as “binds”.

As for B7, the binding result was “binds”.

As to B8, the binding result is on record as “binds”.

The next experiment deals with T2, KDpeptide3.
T2 construct: Synthetic peptide (Anaspec) coated on ELISA plates at 800 ng per well; also the base peptide of substitution scans; also called Kdpep3; KD3
T2 peptide: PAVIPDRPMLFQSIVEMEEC
The experiment is described as follows: ELISA on coated synthetic peptide.
Regarding B1, the binding result was “binds”.

As to B2, the binding result is listed as “binds”.

Regarding B9, the binding result was “binds”.

For B3, the binding result was “binds”.

B10: the binding result is recorded as “binds”.

Take B4: the binding result is listed as “binds”.

For B11, the binding result was “binds”.

For B5, the binding result is recorded as “binds”.

Turning to B6, the binding result is given as “binds”.

B7: the binding result is listed as “binds”.

On to B12, for which the binding result is “binds”.

For B8, the binding result was “binds”.

A further experiment concerns the target T1, KDpeptide2. The experiment is described as follows: ELISA on coated synthetic peptide. Background: ELISA stands for enzyme-linked immunosorbent assay.
Regarding B13, the binding result was “no binding”.

Consider B14, for which the binding result is reported as “no binding”.

A further experiment concerns the target T2, KDpeptide3. Nature of the experiment: ELISA on coated synthetic peptide. This is another data set of the same source.
Regarding B13, the binding result is on record as “no binding”.

As for B14, the binding result was “no binding”.

Values taken from patent US20250172552A1 (ANN AND ROBERT H LURIE CHILDREN S HOSPITAL OF CHICAGO, published 2025).
